Data on five molecules can be found in US20260167721A1 (ABLEXIS, published 2026).

Test [1] deals with T1, CD3 on Jurkat wild-type cells (UniProt P07766 23-207; P04234 22-171; P09693 23-182).
T1 construct: whole, on cells; also called Jurkat WT
Put plainly: flow cytometry on Jurkat WT cells, antibody at 1 ug/ml.

The target of test [2] is T1, CD3 on Jurkat wild-type cells. Put plainly: flow cytometry on Jurkat WT cells, antibody at 10 ug/ml. On the technique in general: A flow cytometer gives signals particle by particle.
Test [3] deals with T2, CD33 on KILR-HL60 cells (UniProt P20138 18-364, limits assumed).
T2 construct: whole, on cells; Target of the gemtuzumab arm; also called CD33 expressing cells
T2 sequence (P20138 18-364 limits assumed): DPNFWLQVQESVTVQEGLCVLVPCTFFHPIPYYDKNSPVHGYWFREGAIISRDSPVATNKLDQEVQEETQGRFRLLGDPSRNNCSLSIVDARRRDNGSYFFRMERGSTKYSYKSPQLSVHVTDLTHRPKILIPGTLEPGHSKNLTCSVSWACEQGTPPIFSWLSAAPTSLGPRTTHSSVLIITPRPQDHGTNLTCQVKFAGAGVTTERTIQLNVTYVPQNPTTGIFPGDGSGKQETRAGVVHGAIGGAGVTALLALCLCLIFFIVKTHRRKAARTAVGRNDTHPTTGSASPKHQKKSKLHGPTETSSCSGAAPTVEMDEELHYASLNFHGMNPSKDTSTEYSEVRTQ
In words: flow cytometry on KILR-HL60 (CD33 expressing) cells, antibody at 1 ug/ml.

Test [4] addresses T2, CD33 on KILR-HL60 cells. Put plainly: flow cytometry on KILR-HL60 (CD33 expressing) cells, antibody at 10 ug/ml.

T1 sequence (P07766 23-207, chain 1 of 3): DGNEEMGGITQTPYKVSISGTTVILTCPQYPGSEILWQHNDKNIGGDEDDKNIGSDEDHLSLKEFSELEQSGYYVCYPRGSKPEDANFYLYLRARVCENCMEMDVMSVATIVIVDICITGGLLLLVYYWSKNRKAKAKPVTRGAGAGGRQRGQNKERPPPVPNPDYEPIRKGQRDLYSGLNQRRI
T1 sequence (P04234 22-171, chain 2 of 3): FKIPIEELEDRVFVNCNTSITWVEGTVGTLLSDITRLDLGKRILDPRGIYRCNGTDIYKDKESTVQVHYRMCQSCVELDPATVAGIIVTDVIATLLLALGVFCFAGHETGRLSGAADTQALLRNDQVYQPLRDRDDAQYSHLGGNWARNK
T1 sequence (P09693 23-182, chain 3 of 3): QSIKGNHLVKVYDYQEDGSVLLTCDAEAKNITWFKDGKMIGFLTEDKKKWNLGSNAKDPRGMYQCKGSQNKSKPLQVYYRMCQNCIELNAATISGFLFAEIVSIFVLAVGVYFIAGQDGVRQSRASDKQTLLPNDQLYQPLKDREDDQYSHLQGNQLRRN

B1: CD3 × CD33-BspAb45 (bispecific antibody)
chain 1: EVQLVESGGGLVQPGGSLRLSCAASGFTFSRYSMNWVRQAPGKCLEWVSYISSSSSSIYYADSVKGRFTISRDNAKNSLYLQMNSLRDEDTAVYYCARDRRATLDYWGQGTLVTVSSGGGGSGGGGSGGGGSGGGGSNFMLTQPHSVSESPGKTVTISCTRSSGSIASNYVQWYQQRPGSSPTTVIYEDNQRPSGVPDRFSGSIDSSSNSASLTISGLKTEDEADYYCQSYDSSNHVFGCGTKLTVLDKTHTCPPCPAPEFEGGPSVFLFPPKPKDTLMISRTPEVTCVVVDVSHEDPEVKFNWYVDGVEVHNAKTKPREEQYNSTYRVVSVLTVLHQDWLNGKEYKCKVSNKALPASIEKTISKAKGQPREPQVYTLPPCREEMTKNQVSLWCLVKGFYPSDIAVEWESNGQPENNYKTTPPVLDSDGSFFLYSKLTVDKSRWQQGNVFSCSVMHEALHNHYTQKSLSLSPGK
chain 2: EVQLVQSGAEVKKPGSSVKVSCKASGYTITDSNIHWVRQAPGQSLEWIGYIYPYNGGTDYNQKFKNRATLTVDNPTNTAYMELSSLRSEDTAFYYCVNGNPWLAYWGQGTLVTVSSASTKGPSVFPLAPSSKSTSGGTAALGCLVKDYFPEPVTVSWNSGALTSGVHTFPAVLQSSGLYSLSSVVTVPSSSLGTQTYICNVNHKPSNTKVDKRVEPKSCDKTHTCPPCPAPEFEGGPSVFLFPPKPKDTLMISRTPEVTCVVVDVSHEDPEVKFNWYVDGVEVHNAKTKPREEQYNSTYRVVSVLTVLHQDWLNGKEYKCKVSNKALPASIEKTISKAKGQPREPQVCTLPPSREEMTKNQVSLSCAVKGFYPSDIAVEWESNGQPENNYKTTPPVLDSDGSFFLVSKLTVDKSRWQQGNVFSCSVMHEALHNRFTQKSLSLSPGK
chain 3: DIQLTQSPSTLSASVGDRVTITCRASESLDNYGIRFLTWFQQKPGKAPKLLMYAASNQGSGVPSRFSGSGSGTEFTLTISSLQPDDFATYYCQQTKEVPWSFGQGTKVEVKRTVAAPSVFIFPPSDEQLKSGTASVVCLLNNFYPREAKVQWKVDNALQSGNSQESVTEQDSKDSTYSLSSTLTLSKADYEKHKVYACEVTHQGLSSPVTKSFNRGEC
B1: the flow cytometry signal was 19200 in test [1], 38300 in test [2], 640000 with CD33 on KILR-HL60 cells [3] and 741000 with CD33 on KILR-HL60 cells [4].

B2: CD3 × CD33-BspAb51 (bispecific antibody)
chain 1: not shown
chain 2: EVQLVQSGAEVKKPGSSVKVSCKASGYTITDSNIHWVRQAPGQSLEWIGYIYPYNGGTDYNQKFKNRATLTVDNPTNTAYMELSSLRSEDTAFYYCVNGNPWLAYWGQGTLVTVSSASTKGPSVFPLAPSSKSTSGGTAALGCLVKDYFPEPVTVSWNSGALTSGVHTFPAVLQSSGLYSLSSVVTVPSSSLGTQTYICNVNHKPSNTKVDKRVEPKSCDKTHTCPPCPAPEFEGGPSVFLFPPKPKDTLMISRTPEVTCVVVDVSHEDPEVKFNWYVDGVEVHNAKTKPREEQYNSTYRVVSVLTVLHQDWLNGKEYKCKVSNKALPASIEKTISKAKGQPREPQVCTLPPSREEMTKNQVSLSCAVKGFYPSDIAVEWESNGQPENNYKTTPPVLDSDGSFFLVSKLTVDKSRWQQGNVFSCSVMHEALHNRFTQKSLSLSPGK
chain 3: DIQLTQSPSTLSASVGDRVTITCRASESLDNYGIRFLTWFQQKPGKAPKLLMYAASNQGSGVPSRFSGSGSGTEFTLTISSLQPDDFATYYCQQTKEVPWSFGQGTKVEVKRTVAAPSVFIFPPSDEQLKSGTASVVCLLNNFYPREAKVQWKVDNALQSGNSQESVTEQDSKDSTYSLSSTLTLSKADYEKHKVYACEVTHQGLSSPVTKSFNRGEC
In the case of B2, the flow cytometry signal in test [1] was 12000; in test [2], 24300; with CD33 on KILR-HL60 cells [3], 509000; with CD33 on KILR-HL60 cells [4] it was 691000.

B3: CD3 × CD33-BspAb50 (bispecific antibody)
scFv-Fc: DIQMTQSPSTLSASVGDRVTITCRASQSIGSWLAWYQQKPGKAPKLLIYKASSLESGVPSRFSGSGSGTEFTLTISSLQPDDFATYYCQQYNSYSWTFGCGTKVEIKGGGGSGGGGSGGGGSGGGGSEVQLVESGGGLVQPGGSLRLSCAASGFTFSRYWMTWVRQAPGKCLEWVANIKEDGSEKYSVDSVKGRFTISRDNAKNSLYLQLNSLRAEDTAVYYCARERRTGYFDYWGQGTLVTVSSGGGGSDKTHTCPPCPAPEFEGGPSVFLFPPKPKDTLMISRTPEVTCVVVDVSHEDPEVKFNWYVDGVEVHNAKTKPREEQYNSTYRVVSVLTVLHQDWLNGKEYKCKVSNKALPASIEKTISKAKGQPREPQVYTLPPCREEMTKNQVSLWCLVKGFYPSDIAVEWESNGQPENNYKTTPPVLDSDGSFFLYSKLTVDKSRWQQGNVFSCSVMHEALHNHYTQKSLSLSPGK
heavy: EVQLVQSGAEVKKPGSSVKVSCKASGYTITDSNIHWVRQAPGQSLEWIGYIYPYNGGTDYNQKFKNRATLTVDNPTNTAYMELSSLRSEDTAFYYCVNGNPWLAYWGQGTLVTVSSASTKGPSVFPLAPSSKSTSGGTAALGCLVKDYFPEPVTVSWNSGALTSGVHTFPAVLQSSGLYSLSSVVTVPSSSLGTQTYICNVNHKPSNTKVDKRVEPKSCDKTHTCPPCPAPEFEGGPSVFLFPPKPKDTLMISRTPEVTCVVVDVSHEDPEVKFNWYVDGVEVHNAKTKPREEQYNSTYRVVSVLTVLHQDWLNGKEYKCKVSNKALPASIEKTISKAKGQPREPQVCTLPPSREEMTKNQVSLSCAVKGFYPSDIAVEWESNGQPENNYKTTPPVLDSDGSFFLVSKLTVDKSRWQQGNVFSCSVMHEALHNRFTQKSLSLSPGK
light: DIQLTQSPSTLSASVGDRVTITCRASESLDNYGIRFLTWFQQKPGKAPKLLMYAASNQGSGVPSRFSGSGSGTEFTLTISSLQPDDFATYYCQQTKEVPWSFGQGTKVEVKRTVAAPSVFIFPPSDEQLKSGTASVVCLLNNFYPREAKVQWKVDNALQSGNSQESVTEQDSKDSTYSLSSTLTLSKADYEKHKVYACEVTHQGLSSPVTKSFNRGEC
Take B3: the flow cytometry signal in test [1] stood at 9700; in test [2], 33900; with CD33 on KILR-HL60 cells [3], 475000; with CD33 on KILR-HL60 cells [4], 465000.

B4: CD3 × CD33-BspAb37 (bispecific antibody)
chain 1: not shown
chain 2: EVQLVQSGAEVKKPGSSVKVSCKASGYTITDSNIHWVRQAPGQSLEWIGYIYPYNGGTDYNQKFKNRATLTVDNPTNTAYMELSSLRSEDTAFYYCVNGNPWLAYWGQGTLVTVSSASTKGPSVFPLAPSSKSTSGGTAALGCLVKDYFPEPVTVSWNSGALTSGVHTFPAVLQSSGLYSLSSVVTVPSSSLGTQTYICNVNHKPSNTKVDKRVEPKSCDKTHTCPPCPAPEFEGGPSVFLFPPKPKDTLMISRTPEVTCVVVDVSHEDPEVKFNWYVDGVEVHNAKTKPREEQYNSTYRVVSVLTVLHQDWLNGKEYKCKVSNKALPASIEKTISKAKGQPREPQVCTLPPSREEMTKNQVSLSCAVKGFYPSDIAVEWESNGQPENNYKTTPPVLDSDGSFFLVSKLTVDKSRWQQGNVFSCSVMHEALHNRFTQKSLSLSPGK
chain 3: DIQLTQSPSTLSASVGDRVTITCRASESLDNYGIRFLTWFQQKPGKAPKLLMYAASNQGSGVPSRFSGSGSGTEFTLTISSLQPDDFATYYCQQTKEVPWSFGQGTKVEVKRTVAAPSVFIFPPSDEQLKSGTASVVCLLNNFYPREAKVQWKVDNALQSGNSQESVTEQDSKDSTYSLSSTLTLSKADYEKHKVYACEVTHQGLSSPVTKSFNRGEC
Regarding B4, the flow cytometry signal was found to be 10900 in test [1], 32800 in test [2], 486000 in the test with CD33 on KILR-HL60 cells [3] and 758000 with CD33 on KILR-HL60 cells [4].

B5: CD3 × CD33-BspAb48 (bispecific antibody)
chain 1: QVTLKESGPGILQPSQTLSLTCSFSGFSLSTFGMGVGWIRQPSGKCLEWLAHIWWDDDKYYNPALKSRLTISKDTSKNQVFLKIANVDTADTATYYCARLGYYPYWFFDVWGTGTTVTVSSGGGGSGGGGSGGGGSGGGGSNFMLTQPHSVSESPGKTVTIACTRSSGSIASNYVQWYQQRPGSSPTTVIYEDNQRPSGVPDRFSGSIDSSSNSASLTISGLKTEDEADYYCQSYDSSNQVFGCGTKLTVLDKTHTCPPCPAPEFEGGPSVFLFPPKPKDTLMISRTPEVTCVVVDVSHEDPEVKFNWYVDGVEVHNAKTKPREEQYNSTYRVVSVLTVLHQDWLNGKEYKCKVSNKALPASIEKTISKAKGQPREPQVYTLPPCREEMTKNQVSLWCLVKGFYPSDIAVEWESNGQPENNYKTTPPVLDSDGSFFLYSKLTVDKSRWQQGNVFSCSVMHEALHNHYTQKSLSLSPGK
chain 2: EVQLVQSGAEVKKPGSSVKVSCKASGYTITDSNIHWVRQAPGQSLEWIGYIYPYNGGTDYNQKFKNRATLTVDNPTNTAYMELSSLRSEDTAFYYCVNGNPWLAYWGQGTLVTVSSASTKGPSVFPLAPSSKSTSGGTAALGCLVKDYFPEPVTVSWNSGALTSGVHTFPAVLQSSGLYSLSSVVTVPSSSLGTQTYICNVNHKPSNTKVDKRVEPKSCDKTHTCPPCPAPEFEGGPSVFLFPPKPKDTLMISRTPEVTCVVVDVSHEDPEVKFNWYVDGVEVHNAKTKPREEQYNSTYRVVSVLTVLHQDWLNGKEYKCKVSNKALPASIEKTISKAKGQPREPQVCTLPPSREEMTKNQVSLSCAVKGFYPSDIAVEWESNGQPENNYKTTPPVLDSDGSFFLVSKLTVDKSRWQQGNVFSCSVMHEALHNRFTQKSLSLSPGK
chain 3: DIQLTQSPSTLSASVGDRVTITCRASESLDNYGIRFLTWFQQKPGKAPKLLMYAASNQGSGVPSRFSGSGSGTEFTLTISSLQPDDFATYYCQQTKEVPWSFGQGTKVEVKRTVAAPSVFIFPPSDEQLKSGTASVVCLLNNFYPREAKVQWKVDNALQSGNSQESVTEQDSKDSTYSLSSTLTLSKADYEKHKVYACEVTHQGLSSPVTKSFNRGEC
For B5, the flow cytometry signal in test [1] was 4140; in test [2] it was 10800; with CD33 on KILR-HL60 cells [3], 566000; in the test with CD33 on KILR-HL60 cells [4], 483000.
